Holding throughout (experiment): controlled Fab-arm exchange read by hydrophobic interaction chromatography; equimolar parental antibodies, 1 mg/mL each, 75 mM 2-MEA, 5 h at 31 °C; 2-MEA removed, overnight at 4 °C for re-oxidation; percent bispecific product from HIC peak areas
In assay [1] the target is IgG1-CH3(mmG2a)-T370K-K409R parental antibody (7D8-derived) (human | mouse).
The target of assay [2] is IgG1-CH3(mmG2a)-K409R parental antibody with the R411T mutation (7D8-derived) (human | mouse).
Chain of IgG1-CH3(mmG2a)-K409R parental antibody with the R411T mutation (7D8-derived) (human | mouse) (heavy, as listed by the source, chain 1 of 2): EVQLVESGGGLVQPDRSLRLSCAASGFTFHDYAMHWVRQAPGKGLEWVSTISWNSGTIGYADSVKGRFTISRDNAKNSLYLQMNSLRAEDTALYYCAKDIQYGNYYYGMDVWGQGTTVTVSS
Chain of IgG1-CH3(mmG2a)-K409R parental antibody with the R411T mutation (7D8-derived) (human | mouse) (light, as listed by the source, chain 2 of 2): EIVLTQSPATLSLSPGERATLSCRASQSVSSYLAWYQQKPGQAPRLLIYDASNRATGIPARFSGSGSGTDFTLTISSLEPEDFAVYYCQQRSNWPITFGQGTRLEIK
The target in assay [3] is mmIgG2b-K409R parental antibody (7D8-derived) (human | mouse).
Chain of mmIgG2b-K409R parental antibody (7D8-derived) (human | mouse) (heavy, as listed by the source, chain 1 of 2): as the sequence (heavy, as listed by the source, chain 1 of 2) above
Chain of mmIgG2b-K409R parental antibody (7D8-derived) (human | mouse) (light, as listed by the source, chain 2 of 2): as the sequence (light, as listed by the source, chain 2 of 2) above

The values that follow come from PMC5449386.

Bounds are passed on as bounds.

Chain of IgG1-CH3(mmG2a)-T370K-K409R parental antibody (7D8-derived) (human | mouse) (heavy, as listed by the source, chain 1 of 2): as the sequence (heavy, as listed by the source, chain 1 of 2) above
Chain of IgG1-CH3(mmG2a)-T370K-K409R parental antibody (7D8-derived) (human | mouse) (light, as listed by the source, chain 2 of 2): as the sequence (light, as listed by the source, chain 2 of 2) above

For “IgG1-CH3(mmG2a)-F405L parental antibody (2F8-derived)”, the cFAE efficiency (percent bispecific product by HIC) in assay [1] was > 90%.
“IgG1-CH3(mmG2a)-F405L-R411T parental antibody (2F8-derived)”: the values for the cFAE efficiency (percent bispecific product by HIC) in assay [2] and in assay [1] were 61% and > 90%, respectively.
In the case of “mmIgG2b-F405L parental antibody (2F8-derived)”, in assay [3], the cFAE efficiency (percent bispecific product by HIC) was determined as 80%.
With “IgG1-CH3(mmG2a)-F405L parental antibody with the T370K mutation (2F8-derived)”, in assay [1], the cFAE efficiency (percent bispecific product by HIC) stood at 76%.
